From paper PMC5458078, “Global mapping of CARM1 substrates defines enzyme specificity and substrate recognition” (Nature Communications, 2017)

Legend:
[1] = tested on: GST fused MED12, BAF155 and PABP1 peptides; assay: In vitro methylation of GST fused peptides by recombinant CARM1 proteins, autoradiography; type: biochemical; details: 3H-SAM, 1–4 h, 30 °C; compared with CARM1 FL and CARM1 28–608
Description: The FL and N-terminal domain-deleted version of human CARM1 cDNAs, and other PRMT FL cDNAs were cloned into pFN21K Halo Tag CMV Flexi mammalian expression vector (Promega, Madison, WI) using the unique Sgfl and Pmel site[55]. To express the protein, DNA constructs were transiently transfected into HEK293T CARM1 KO cells in 15 cm dishes using transIT-LT1 reagent (Mirus Bio, Madison, WI) according to the manufacturer's protocol. Proteins were allowed to express for 48 h. Cell pellets were then collected and lysed in lysis buffer (50 mM HEPES, pH 7.5, 150 mM NaCl, 0.005% NP-40, 0.5 mM EDTA, supplemented with 1 × protease inhibitor cocktail before use). The cells were sonicated on ice using a Branson Sonifier 450 with a microtip at 35% amplitude (10 s on, 30 s off, 6 cycles). The crude lysate was cleared by centrifugation (15,000 r.p.m., 4 °C, 20 min). […] The resin was centrifuged at 3,000 r.p.m. for 5 min, and the supernatant containing the cleaved protein was collected and protein concentration was determined using the Bradford assay (Thermo Scientific, Rockford, IL). Protein purity was assessed by running SDS–PAGE and Coomassie Blue staining.
The DNA fragments were cloned into pGEX-2T GST expression vector (GE Healthcare, Waukesha, WI). […] Protein concentration was then determined using Bradford assay and protein purity was assessed by SDS–PAGE and Coomassie Blue staining. […]

[2] = tested on: MCF7 CARM1 KO cells; assay: In vivo methylation of BAF155, stable expression, western blot; type: cell-based, human
Source text: We next sought to assess the impact of CARM1 N-terminal deletion in cells stably expressing mutant enzymes. […] To quantify the affected ADMA-containing peptides in MCF7 CARM1 KO and CARM1 140–608 expressing cells, we employed our quantitative MS method (Fig. 1a) using CARM1 28–608 as a reference for normalization (Supplementary Data 4). […] The magnitude of reduction in CARM1 140–608 cells, however, was slightly less than that in the CARM1 KO cells. […] As indicated by R^2 of 0.65, noticeable differences existed between the levels of ADMA-containing peptides in cells expressing the N-terminal truncation of CARM1 and CARM1 28–608 control (Supplementary Fig. 4f).
Cells were collected by trypsinization, washed with Dulbecco's phosphate buffer saline (Life Technologies, Carlsbad, CA) and lysed by suspension in lysis buffer (50 mM Tris-HCl pH 8.0, 150 mM NaCl, 10% glycerol, 0.5% Triton X-100 and 1 × protease inhibitor cocktail (Sigma-Aldrich)). After brief sonication followed by centrifugation, total protein was quantified using the BioRad Protein Assay (BioRad, Hercules, CA), and 20 μg protein was resolved by SDS–PAGE. Proteins were transferred to a nitrocellulose membrane for 1.5 h at 350 mA. Membranes were blocked with 5% nonfat milk at room temperature for 1 h and incubated overnight with diluted primary antibody at 4 °C. […]

B1: CARM1 140–608: CARM1 140–608 lacks the first 140 residues encompassing the EVH1 domain (protein)
chain: RTEESSAVQYFQFYGYLSQQQNMMQDYVRTGTYQRAILQNHTDFKDKIVLDVGCGSGILSFFAAQAGARKIYAVEASTMAQHAEVLVKSNNLTDRIVVIPGKVEEVSLPEQVDIIISEPMGYMLFNERMLESYLHAKKYLKPSGNMFPTIGDVHLAPFTDEQLYMEQFTKANFWYQPSFHGVDLSALRGAAVDEYFRQPVVDTFDIRILMAKSVKYTVNFLEAKEGDLHRIEIPFKFHMLHSGLVHGLAFWFDVAFIGSIMTVWLSTAPTEPLTHWYQVRCLFQSPLFAKAGDTLSGTCLLIANKRQSYDISIVAQVDQTGSKSSNLLDLKNPFFRYTGTTPSPPPGSHYTSPSENMWNTGSTYNLSSGMAVAGMPTAYDLSSVIASGSSVGHNNLIPLANTGIVNHTHSRMGSIMSTGIVQGSSGAQGSGGGSTSAHYAVNSQFTMGGPAISMASPMSIPTNTMHYGS
modifications: left off: FLAG, end not stated, kept
notes: CARM1 140–608 lacks the first 140 residues encompassing the EVH1 domain
For B1, the “Methylation of GST fused MED12, BAF155 and PABP1 peptides and other protein substrates” value [1] was “greatly reduced ability” and the “In vivo methylation of BAF155” value [2] was “impaired in vivo methylation of BAF155”.
